Data as given in patent US20020168372A1 (published 2002).

Biological target: the molecule itself
Test: self-assembly; CsCl gradient and TEM

Protein | binding result
HPV16 L1 protein of clone P114/16/11 (114/K) (other, Differs from prototype L1 only by His202Asp; Expressed in Sf-9 insect cells; self-assembles into VLP; also called 114K-L1; 114/K-L1) MSLWLPSEATVYLPPVPVSKVVSTDEYVARTNIYYHAGTSRLLAVGHPYFPIKKPNNNKILVPKVSGLQYRVFRIHLPDPNKFGFPDTSFYNPDTQRLVWACVGVEVGRGQPLGVGISGHPLLNKLDDTENASAYAANAGVDNRECISMDYKQTQLCLIGCKPPIGEHWGKGSPCTNVAVNPGDCPPLELINTVIQDGDMVDTGFGAMDFTTLQANKSEVPLDICTSICKYPDYIKMVSEPYGDSLFFYLRREQMFVRHLFNRAGTVGENVPDDLYIKGSGSTANLASSNYFPTPSGSMVTSDAQIFNKPYWLQRAQGHNNGICWGNQLFVTVVDTTRSTNMSLCAAISTSETTYKNTNFKEYLRHGEEYDLQFIFQLCKITLTADVMTYIHSMNSTILEDWNFGLQPPPGGTLEDTYRFVTSQAIACQKHTPPAPKEDPLKKYTFWEVNLKEKFSADLDQFPLGRKFLLQAGLKAKPKFTLGKRKATPTTSSTSTTAKRKKRKL | binds
HPV16 L1 protein of clone P114/16/2 (114/B) (other, Differs from prototype L1 by Val194Ile, His202Asp and Thr266Ala; Expressed in Sf-9 insect cells; self-assembles into VLP) MSLWLPSEATVYLPPVPVSKVVSTDEYVARTNIYYHAGTSRLLAVGHPYFPIKKPNNNKILVPKVSGLQYRVFRIHLPDPNKFGFPDTSFYNPDTQRLVWACVGVEVGRGQPLGVGISGHPLLNKLDDTENASAYAANAGVDNRECISMDYKQTQLCLIGCKPPIGEHWGKGSPCTNVAVNPGDCPPLELINTIIQDGDMVDTGFGAMDFTTLQANKSEVPLDICTSICKYPDYIKMVSEPYGDSLFFYLRREQMFVRHLFNRAGAVGENVPDDLYIKGSGSTANLASSNYFPTPSGSMVTSDAQIFNKPYWLQRAQGHNNGICWGNQLFVTVVDTTRSTNMSLCAAISTSETTYKNTNFKEYLRHGEEYDLQFIFQLCKITLTADVMTYIHSMNSTILEDWNFGLQPPPGGTLEDTYRFVTSQAIACQKHTPPAPKEDPLKKYTFWEVNLKEKFSADLDQFPLGRKFLLQAGLKAKPKFTLGKRKATPTTSSTSTTAKRKKRKL | binds
